The source of these data is US20060153834A1.

For orientation: Kd means the free concentration of one partner at which half of the binding sites on the other are occupied at equilibrium, for simple one-to-one binding. High values mean lower affinity, low ones higher affinity.

No end group written: not given here.

Assay [1] has as its target 14C-HIgG (human). Kind of assay: secondary screening, batch, HIgG competitive (spiked in MEM).
Assay [2] addresses 14C-Fc fragment of HIgG (human). In words: secondary screening, batch, Fc fragment competitive (spiked in MEM).
Assay [3] concerns the target 14C-HIgG (human). Kind of assay: secondary screening, batch, HIgG non-competitive (PBS), Micro-BCA.
Assay [4] has as its target 14C-Fc fragment of HIgG (human). In words: secondary screening, batch, Fc fragment non-competitive (PBS).
The target of assay [5] is 14C-HIgG (human). In words: second round of secondary screening, batch, competitive (MEM), 14C counting.
Assay [6] addresses Human IgG (HIgG) (human). In words: batch adsorption isotherm, PBS pH 7.4, peptide resin 0.1 meq/g, direct Langmuir fit.
The target in assay [7] is Human IgG (HIgG) (human). Kind of assay: batch adsorption isotherm, PBS pH 7.4, peptide resin 0.1 meq/g, double reciprocal curve.
Assay [8] addresses 14C-HIgG (human). Kind of assay: second round of secondary screening, batch, non-competitive (PBS).
Assay [9] has as its target Human IgG (HIgG) (human). Kind of assay: ratio of ligand to protein at maximum capacity, Ac-HWRGWV resin at 0.080 mmol/g.
Assay [10] concerns the target Human IgG (HIgG) (human). Kind of assay: batch adsorption isotherm, PBS pH 7.4, Ac-HWRGWV resin at 0.080 mmol/g, Langmuir fit.
The target of assay [11] is Human IgG (HIgG) (human). In words: ratio of ligand to protein at maximum capacity, HWRGWV resin at 0.22 mmol/g.
Assay [12] concerns the target Human IgG (HIgG) (human). In words: ratio of ligand to protein at maximum capacity, HWRGWV resin at 0.022 mmol/g.
The target of assay [13] is Human IgG (HIgG) (human). In words: batch adsorption isotherm, PBS pH 7.4, HWRGWV resin at 0.080 mmol/g, Langmuir fit.
Assay [14] has as its target Human IgG (HIgG) (human). In words: ratio of ligand to protein at maximum capacity, HWRGWV resin at 0.080 mmol/g.
The target in assay [15] is Human IgG (HIgG) (human). In words: batch adsorption isotherm, PBS pH 7.4, HWRGWV resin at 0.022 mmol/g, Langmuir fit.
Assay [16] concerns the target Human IgG (HIgG) (human). Kind of assay: batch adsorption isotherm, PBS pH 7.4, HWRGWV resin at 0.55 mmol/g, Langmuir fit.
Assay [17] concerns the target Human IgG (HIgG) (human). Kind of assay: batch adsorption isotherm, PBS pH 7.4, HWRGWV resin at 0.22 mmol/g, Langmuir fit.
In assay [18] the target is Human IgG (HIgG) (human). In words: batch adsorption isotherm, PBS pH 7.4, HWRGWV resin at 0.040 mmol/g, Langmuir fit.
The target of assay [19] is Human IgG (HIgG) (human). Kind of assay: ratio of ligand to protein at maximum capacity, HWRGWV resin at 0.10 mmol/g.
The target of assay [20] is Human IgG (HIgG) (human). Kind of assay: ratio of ligand to protein at maximum capacity, HWRGWV resin at 0.55 mmol/g.
The target of assay [21] is Human IgG (HIgG) (human). Kind of assay: batch adsorption isotherm, PBS pH 7.4, HWRGWV resin at 0.10 mmol/g, Langmuir fit.
Assay [22] has as its target Human IgG (HIgG) (human). In words: ratio of ligand to protein at maximum capacity, HWRGWV resin at 0.040 mmol/g.

Consider HRPKIF (peptide), for which the Bound % in assay [1] came out at 4.51%; in assay [2], 24.5%; in assay [3] it was 11.2%; in assay [4], 21.5%.

With HPWYVTA-{Toyopearl AF‑Amino‑650 resin}, in assay [5], the Bound was determined as 27% and the Unbound amounted to 73%.

As for YYWLHHA-{Toyopearl AF‑Amino‑650 resin}, the Bound % in assay [1] was found to be 41.9%; in assay [2], 8.85%; in assay [3] it was 91.3%; in assay [4], 40.4%. For the same molecule, the Kd amounted to 0.297 µM in assay [6] and 0.215 µM in [7]. Also, the qm (maximum capacity) in [6] is 113 mg/g; in assay [7], 95.1 mg/g.

As for HFDKGFA-{Toyopearl AF‑Amino‑650 resin}, the Bound % in [1] stood at 6.01%; in assay [2] it was 4.28%; in [3], 10.7%; in [4], 12.9%.

In assay [5], KRGFYYA-{Toyopearl AF‑Amino‑650 resin} returned a Bound of 17.3% and an Unbound of 82.7%.

In assay [5], HWIDPLA-{Toyopearl AF‑Amino‑650 resin} gave a Bound of 19.9% and an Unbound of 80.1%. Also, in [8], the Bound is 9.03% and the Unbound turned out to be 91%.

In assay [5], HWGPTKA-{Toyopearl AF‑Amino‑650 resin} yielded a Bound of 19.9% and an Unbound of 80.1%. In [8], the Bound was determined as 14.4% and the Unbound amounted to 85.6%.

In assay [5], HIQLDGA-{Toyopearl AF‑Amino‑650 resin} came in with a Bound of 10% and an Unbound of 90%.

KGEA-{Toyopearl AF‑Amino‑650 resin}: the figures for the Bound in assay [5] and in [8] were 7.34% and 6.08%, respectively. Moreover, the results for the Unbound in assay [5] and in assay [8] were 92.7% and 93.9%, respectively.

On to KLQWVHA-{Toyopearl AF‑Amino‑650 resin}, for which, in [5], the Bound came to 12.2% and the Unbound is 87.8%.

In assay [5], HYFKFDA-{Toyopearl AF‑Amino‑650 resin} gave a Bound of 43.3% and an Unbound of 56.7%. For the same molecule, in assay [8], the Bound amounted to 69.3% and the Unbound is 30.7%. In assay [6], the Kd is 11.4 µM and the qm (maximum capacity) was 127 mg/g.

As for HFRRHLA-{Toyopearl AF‑Amino‑650 resin}, in [5], the Bound turned out to be 40.9% and the Unbound is 59.1%. For the same molecule, in assay [6], the Kd came out at 26.4 µM and the qm (maximum capacity) stood at 158 mg/g.

Turning to HEILYWA-{Toyopearl AF‑Amino‑650 resin}, the Bound % in assay [1] is 5.5%; in assay [2], 3.2%; in assay [3], 9.16%; in assay [4] it was 18%.

Turning to Ac-HWRGWVA-{Toyopearl AF‑Amino‑650 resin} [Ac-HWRGWV], the peptide/protein, mol/mol in assay [9] came out at 92 mol/mol. In assay [10], the Kd is 3.8 µM and the qm (maximum capacity) was 131 mg/g.

In assay [5], HVHYYWA-{Toyopearl AF‑Amino‑650 resin} returned a Bound of 43.3% and an Unbound of 56.7%. In assay [8], the Bound worked out at 55.5% and the Unbound came to 44.5%. Further, in assay [6], the dissociation constant Kd worked out at 20.3 µM and the qm (maximum capacity) was 129 mg/g.

In assay [5], HVWQLKA-{Toyopearl AF‑Amino‑650 resin} yielded a Bound of 15.1% and an Unbound of 85%.

In the case of HANGFLA-{Toyopearl AF‑Amino‑650 resin}, the Bound % in assay [1] amounted to 5.58%; in assay [2], 25.6%; in assay [3], 10.5%; in assay [4] it was 10.2%.

In assay [5], HYIDAKA-{Toyopearl AF‑Amino‑650 resin} displayed a Bound of 8.64% and an Unbound of 91.4%.

Consider HWRGWVA-{Toyopearl AF‑Amino‑650 resin}, for which the peptide/protein, mol/mol in assay [11] worked out at 241 mol/mol; in [12], 21 mol/mol; in [14], 91 mol/mol; in [19], 112 mol/mol; in assay [20] it was 600 mol/mol; in [22] it was 41 mol/mol. In addition, the equilibrium dissociation constant (Kd) is 7.25 µM in assay [13]; 30 µM in assay [15]; 0.947 µM in assay [16]; 2.58 µM in [17]; 20.3 µM in assay [18]; 10.4 µM in assay [21]. Besides, the figures for the Kd in [6] and in [7] were 1.33 µM and 2.8 µM, respectively. Also, the qm (maximum capacity) in [13] was found to be 132 mg/g; in assay [15], 158 mg/g; in assay [16] it was 138 mg/g; in assay [17], 137 mg/g; in assay [18], 148 mg/g; in [21], 134 mg/g. For the same molecule, the qm (maximum capacity) turned out to be 50 mg/g in assay [6] and 54.8 mg/g in [7]. Further, the Bound % in assay [1] was 24.4%; in assay [2], 8.13%; in [3], 62.2%; in assay [4], 82.5%.

Turning to HYGLGWA-{Toyopearl AF‑Amino‑650 resin}, the Bound % in assay [1] was determined as 14.5%; in [2] it was 4.91%; in assay [3], 17.9%; in assay [4], 19.8%.

Take HDVFHTA-{Toyopearl AF‑Amino‑650 resin}: in assay [5], the Bound stood at 8.55% and the Unbound was 91.5%.

For HIWA-{Toyopearl AF‑Amino‑650 resin}, in assay [5], the Bound was 12.9% and the Unbound stood at 87.1%. Moreover, in [8], the Bound turned out to be 7.9% and the Unbound came out at 92.1%.

In assay [5], HLKWYAA-{Toyopearl AF‑Amino‑650 resin} returned a Bound of 23.5% and an Unbound of 76.5%.

Consider WHWRKRA-{Toyopearl AF‑Amino‑650 resin}, for which the Bound % in assay [1] came to 10.9%; in assay [2], 16.5%; in [3] it was 66.2%; in [4] it was 88.2%. For the same molecule, the figures for the Kd in assay [6] and in assay [7] were 1.39 µM and 2.47 µM, respectively. The qm (maximum capacity) stood at 62.4 mg/g in assay [6] and 81.9 mg/g in assay [7].
